One test deals with T1, CD20 (on Daudi cells) (human, UniProt P11836 1-297).
T1 construct: whole, on cells; The target is the CD20 naturally present on Daudi cells; also called antigen
T1 sequence (looked up): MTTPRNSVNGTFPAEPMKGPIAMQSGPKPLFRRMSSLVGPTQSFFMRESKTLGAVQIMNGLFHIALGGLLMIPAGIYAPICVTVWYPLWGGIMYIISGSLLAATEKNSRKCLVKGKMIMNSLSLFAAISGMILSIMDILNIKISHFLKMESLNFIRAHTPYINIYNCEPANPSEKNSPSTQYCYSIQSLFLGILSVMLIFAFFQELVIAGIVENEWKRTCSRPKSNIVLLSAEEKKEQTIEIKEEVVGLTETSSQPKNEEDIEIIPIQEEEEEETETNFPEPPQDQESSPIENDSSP
As to the kind of experiment: cell ELISA on Daudi cells, HRP anti-human IgG, OD450. The protocol:
Daudi cells (ATCC catalog No. CCL-213) were dispensed into a 96 well plate at a density of 6×10⁴ cells/well, each of the antibody mutants (Glu293Cys, Glu294Cys, Tyr296Cys, Ser298Cys, or Tyr300Cys) obtained in Example 1 or wild type antibody was added thereto, and a reaction was carried out at 4° C. for 1 hour. Following this, washing was carried out with 3 mM EDTA-0.5% BSA-PBS(−) (washing buffer). Subsequently, 50 μL/well of an HRP-labeled anti-human IgG antibody (Zymed) diluted 500 times with the washing buffer was added, and a reaction was carried out at 4° C. for 1 hour. Cells after the reaction were washed with the washing buffer, 100 μL/well of TMB substrate (KPL) was added thereto so as to cause coloration, the reaction was stopped by adding 100 μL/well of 1 M HCl (Wako), and the OD value at 450 nm was measured using a plate reader (VersaMax, Molecular Devices).
In general terms: In an ELISA, binding on a coated surface is turned into a signal by an enzyme label.

Test [1] concerns the target T2, CD16 (NK cell Fcy receptor III), expressed on CHO-K1 cells (human, UniProt P08637 17-254).
T2 construct: whole, on cells; also called CD16-expressing CHO-K1 cells
As to the kind of experiment: flow cytometry on CD16-expressing CHO-K1 cells; biotin anti-human IgG kappa L chain antibody and PE-streptavidin. Here is the method: CD16-expressing CHO-K1 cells were taken at 6×10⁴ cells/tube, each of the antibody mutants obtained in Example (Tyr296Cys or Ser298Cys) or wild type antibody was added thereto to give a total amount of 50 μL/tube, and a reaction was carried out at 4° C. for 1 hour. Following this, washing was carried out with 3 mM EDTA-0.5% BSA-PBS(−) (washing buffer). Subsequently, a biotin-labeled mouse anti-human IgGκ L chain antibody (Vector Lab) diluted 200 times with the washing buffer was added at 100 μL/tube. After a reaction was carried out at 4° C. for 30 min, washing was carried out with 3 mM EDTA-0.5% BSA-PBS(−), PE-labeled streptavidin (BD-Pharmingen) diluted 400 times with the washing buffer was added at 100 μL/tube, and a reaction was carried out at 4° C. for 30 min. After the reaction was completed, washing was carried out twice with 3 mM EDTA-0.5% BSA-PBS(−), and a CD16-binding anti-CD20 antibody was analyzed using a flow cytometer (FACS Caliber, BecktonDickinson).

The source of these data is patent US20100306864A1 (OTSUKA CHEMICAL, published 2010).

T2 sequence (P08637 17-254): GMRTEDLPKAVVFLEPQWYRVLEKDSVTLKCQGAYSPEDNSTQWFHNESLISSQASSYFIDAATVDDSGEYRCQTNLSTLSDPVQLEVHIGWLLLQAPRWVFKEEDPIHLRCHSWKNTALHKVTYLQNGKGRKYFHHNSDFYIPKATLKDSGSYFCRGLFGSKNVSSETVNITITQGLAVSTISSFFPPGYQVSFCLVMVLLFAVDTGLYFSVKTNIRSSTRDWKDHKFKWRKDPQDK

B1: anti-CD20 chimera antibody (wild type) (antibody, human IgG1, kappa)
heavy: not shown
light: QIVLSQSPAILSASPGEKVTMTCRASSSVSYMHWYQQKPGSSPKPWIYAPSNLASGVPARFSGSGSGTSYSLTISRVEAEDAANYYCQQWSFNPPTFGAGTKLELKTVAAPSVFIFPPSDEQLKSGTASVVCLLNNFYPREAKVQWKVDNALQSGNSQESVTEQDSKDSTYSLSSTLTLSKADYEKHKVYACEVTHQGLSSPVTKSFNRGEC
notes: Mouse anti-CD20 variable regions joined to human IgG1 H chain and human L chain constant regions; also called wild type antibody; wild type anti-CD20 chimera antibody; copies: 2 + 2
As to B1, the binding result in the test with CD20 (on Daudi cells) was “binds”.

B2: anti-CD20 chimera antibody H chain constant region amino acid mutant Tyr296Cys (antibody, human IgG1, kappa)
heavy: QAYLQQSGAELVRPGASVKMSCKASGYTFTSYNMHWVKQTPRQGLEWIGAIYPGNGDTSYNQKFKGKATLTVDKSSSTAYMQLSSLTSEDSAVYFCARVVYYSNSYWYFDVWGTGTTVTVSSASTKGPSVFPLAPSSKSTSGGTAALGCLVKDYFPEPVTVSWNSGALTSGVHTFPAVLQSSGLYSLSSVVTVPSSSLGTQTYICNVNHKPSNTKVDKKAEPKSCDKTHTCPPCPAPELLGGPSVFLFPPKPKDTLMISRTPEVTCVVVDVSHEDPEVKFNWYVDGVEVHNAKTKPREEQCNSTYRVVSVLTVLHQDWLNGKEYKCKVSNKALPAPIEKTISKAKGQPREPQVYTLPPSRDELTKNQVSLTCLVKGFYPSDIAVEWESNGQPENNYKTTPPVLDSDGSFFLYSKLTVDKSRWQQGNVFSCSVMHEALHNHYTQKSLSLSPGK
light: B1 light
notes: H chain entry already carries Tyr296Cys (Kabat EU index); also called Tyr296Cys mutant; Tyr296Cys-modified antibody; copies: 2 + 2
In the case of B2, the binding result with CD20 (on Daudi cells) is recorded as “binds”. Further, the “CD16 binding activity relative to wild type (concentrations that gave the same effect)” value in test [1] is ~5 times that of the wild type.

B3: anti-CD20 chimera antibody H chain constant region amino acid mutant Tyr300Cys (antibody, human IgG1, kappa)
heavy: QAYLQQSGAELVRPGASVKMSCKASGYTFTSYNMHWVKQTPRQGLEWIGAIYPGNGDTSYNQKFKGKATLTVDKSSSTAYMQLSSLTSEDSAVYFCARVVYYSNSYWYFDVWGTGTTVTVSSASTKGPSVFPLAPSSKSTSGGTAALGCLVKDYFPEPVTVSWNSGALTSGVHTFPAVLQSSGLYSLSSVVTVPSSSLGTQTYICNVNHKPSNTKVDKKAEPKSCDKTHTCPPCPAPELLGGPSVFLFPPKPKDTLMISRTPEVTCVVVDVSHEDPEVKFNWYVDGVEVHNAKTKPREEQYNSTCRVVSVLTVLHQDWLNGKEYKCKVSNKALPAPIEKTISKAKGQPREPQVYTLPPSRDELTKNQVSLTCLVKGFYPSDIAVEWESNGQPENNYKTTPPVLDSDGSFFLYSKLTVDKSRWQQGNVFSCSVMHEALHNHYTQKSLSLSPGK
light: B1 light
notes: H chain entry already carries Tyr300Cys (Kabat EU index); also called Tyr300Cys-modified antibody
With B3, the binding result in the test with CD20 (on Daudi cells) is given as “binds”.

B4: anti-CD20 chimera antibody H chain constant region amino acid mutant Glu294Cys (antibody, human IgG1, kappa)
heavy: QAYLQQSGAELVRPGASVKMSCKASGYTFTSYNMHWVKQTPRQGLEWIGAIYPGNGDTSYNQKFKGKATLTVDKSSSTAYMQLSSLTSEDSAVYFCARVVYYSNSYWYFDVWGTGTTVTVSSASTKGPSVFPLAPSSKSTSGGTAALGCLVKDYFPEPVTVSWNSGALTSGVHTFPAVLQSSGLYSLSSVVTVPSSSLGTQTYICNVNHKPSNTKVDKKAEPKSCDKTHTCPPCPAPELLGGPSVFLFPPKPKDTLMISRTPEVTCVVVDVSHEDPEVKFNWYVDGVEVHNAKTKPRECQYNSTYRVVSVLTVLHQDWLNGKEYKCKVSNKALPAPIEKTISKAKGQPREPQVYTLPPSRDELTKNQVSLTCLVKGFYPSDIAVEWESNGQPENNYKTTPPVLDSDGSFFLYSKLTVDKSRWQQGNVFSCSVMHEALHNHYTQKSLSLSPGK
light: B1 light
notes: H chain entry already carries Glu294Cys (Kabat EU index); also called Glu294Cys-modified antibody
For the molecule B4, the binding result with CD20 (on Daudi cells) is recorded as “binds”.

B5: anti-CD20 chimera antibody H chain constant region amino acid mutant Glu293Cys (antibody, human IgG1, kappa)
heavy: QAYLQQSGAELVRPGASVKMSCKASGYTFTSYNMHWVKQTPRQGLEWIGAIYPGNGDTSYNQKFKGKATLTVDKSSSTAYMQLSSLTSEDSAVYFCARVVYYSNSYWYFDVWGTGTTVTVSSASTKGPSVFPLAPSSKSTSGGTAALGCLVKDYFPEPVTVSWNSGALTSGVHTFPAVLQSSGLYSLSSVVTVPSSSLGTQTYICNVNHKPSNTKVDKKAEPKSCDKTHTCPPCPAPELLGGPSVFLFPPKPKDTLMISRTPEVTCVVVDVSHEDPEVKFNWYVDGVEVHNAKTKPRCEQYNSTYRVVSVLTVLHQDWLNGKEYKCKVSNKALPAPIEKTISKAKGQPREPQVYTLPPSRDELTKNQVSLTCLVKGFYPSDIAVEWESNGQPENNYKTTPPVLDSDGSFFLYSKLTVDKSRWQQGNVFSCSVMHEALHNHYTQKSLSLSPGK
light: B1 light
notes: H chain entry already carries Glu293Cys (Kabat EU index); also called Glu293Cys-modified antibody
In the case of B5, the binding result in the test with CD20 (on Daudi cells) is given as “binds”.

B6: anti-CD20 chimera antibody H chain constant region amino acid mutant Ser298Cys (antibody, human IgG1, kappa)
heavy: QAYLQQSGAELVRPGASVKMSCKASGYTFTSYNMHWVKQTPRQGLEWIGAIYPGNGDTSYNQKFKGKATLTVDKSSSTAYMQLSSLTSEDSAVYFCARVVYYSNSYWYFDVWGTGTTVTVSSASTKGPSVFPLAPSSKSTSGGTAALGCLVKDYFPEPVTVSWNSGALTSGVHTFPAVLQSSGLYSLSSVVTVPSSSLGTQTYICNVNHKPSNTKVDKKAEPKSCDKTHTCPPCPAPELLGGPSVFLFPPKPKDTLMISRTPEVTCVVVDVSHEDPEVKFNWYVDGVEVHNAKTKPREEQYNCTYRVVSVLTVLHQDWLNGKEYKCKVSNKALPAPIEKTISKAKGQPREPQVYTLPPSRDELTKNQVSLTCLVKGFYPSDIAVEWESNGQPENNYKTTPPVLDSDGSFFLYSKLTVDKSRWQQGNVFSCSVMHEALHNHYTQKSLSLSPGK
light: B1 light
notes: H chain entry already carries Ser298Cys (Kabat EU index); also called Ser298Cys mutant; Ser298Cys-modified antibody; copies: 2 + 2
Consider B6, for which the binding result with CD20 (on Daudi cells) is listed as “binds”. Besides, the “CD16 binding activity relative to wild type (concentrations that gave the same effect)” value in test [1] was ~10 times that of the wild type.
